Values quoted from earlier work, collected in article PMC4773801.

Biological target: bee venom group III sPLA2 (Apis mellifera) (UniProt P00630)
Chain of UniProt P00630 (P00630 34-167): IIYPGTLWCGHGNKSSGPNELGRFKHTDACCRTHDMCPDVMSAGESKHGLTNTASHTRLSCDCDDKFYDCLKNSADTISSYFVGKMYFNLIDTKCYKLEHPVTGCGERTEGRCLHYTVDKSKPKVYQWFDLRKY

Substance: mannose receptor CD206 (from UniProt P22897)
- Kd: 4.79 µM
